Test system: Escherichia coli TOP10
Assay: shrunken log2 fold change of peptide-encoding DNA abundance (4.5 h post-induction vs induction); higher = less antimicrobial activity (less host growth inhibition)
Conditions: time post-induction: 4.5 h; library: site-saturation at positions 5, 18, 19, 20
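Note: peptides expressed intracellularly from a pBAD plasmid library in pooled LB shake-flask culture, induced with 0.3% L-arabinose, DNA abundance read by NGS, three biological replicates, DESeq2 with apeglm shrinkage.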

Sequence	shrunken log2 fold change
RRIRTRPPRLPRPRPRPVNSPRP	-0.342
RRIRKRPPRLPRPRPRPYASPRP	0.0496
RRIRVRPPRLPRPRPRPDSLPRP	-0.416
RRIRWRPPRLPRPRPRPISVPRP	-0.186
RRIRPRPPRLPRPRPRPQVFPRP	0.0117
RRIRCRPPRLPRPRPRPAEQPRP	0.252
RRIRTRPPRLPRPRPRPYPAPRP	-0.277
RRIRLRPPRLPRPRPRPPECPRP	-0.29
RRIRCRPPRLPRPRPRPSKQPRP	-0.209
RRIRARPPRLPRPRPRPRKIPRP	0.429
RRIRGRPPRLPRPRPRPRQCPRP	0.216
RRIRDRPPRLPRPRPRPCPSPRP	0.114
RRIRFRPPRLPRPRPRPMFAPRP	0.0307
RRIRHRPPRLPRPRPRPGKAPRP	-0.0115
RRIRGRPPRLPRPRPRPMLPPRP	0.242
RRIRARPPRLPRPRPRPHTTPRP	-0.481
RRIRSRPPRLPRPRPRPQAAPRP	0.544
RRIRFRPPRLPRPRPRPWRTPRP	-0.0041
RRIRERPPRLPRPRPRPNAPPRP	0.0774
RRIRCRPPRLPRPRPRPSAYPRP	-0.406
RRIRARPPRLPRPRPRPVGEPRP	0.482
RRIRQRPPRLPRPRPRPAAMPRP	0.248
RRIRWRPPRLPRPRPRPHTLPRP	-0.325
RRIRERPPRLPRPRPRPDNGPRP	-0.0776
RRIRQRPPRLPRPRPRPKRSPRP	0.0578

Sequence	shrunken log2 fold change
RRIRMRPPRLPRPRPRPYYVPRP	-0.0412
RRIRHRPPRLPRPRPRPFTHPRP	-0.0608
RRIRCRPPRLPRPRPRPAMQPRP	0.0643
RRIRWRPPRLPRPRPRPTGFPRP	0.645
RRIRFRPPRLPRPRPRPWNYPRP	-0.605
RRIRERPPRLPRPRPRPNQEPRP	0.0174
RRIRVRPPRLPRPRPRPGPIPRP	0.0476
RRIRHRPPRLPRPRPRPRQMPRP	-0.0208
RRIRMRPPRLPRPRPRPRHNPRP	-0.0227
RRIRDRPPRLPRPRPRPMNYPRP	0.185
RRIRRRPPRLPRPRPRPLFKPRP	-0.00471
RRIRERPPRLPRPRPRPHFTPRP	-0.246
RRIRVRPPRLPRPRPRPPRWPRP	0.812
RRIRGRPPRLPRPRPRPRWDPRP	0.696
RRIRNRPPRLPRPRPRPAQHPRP	0.00182
RRIRHRPPRLPRPRPRPQLRPRP	-0.343
RRIRIRPPRLPRPRPRPCAFPRP	-0.1
RRIRFRPPRLPRPRPRPGWSPRP	0.114
RRIRRRPPRLPRPRPRPVFKPRP	-0.0974
RRIRGRPPRLPRPRPRPIWQPRP	0.349
RRIRTRPPRLPRPRPRPPYDPRP	-0.398
RRIRERPPRLPRPRPRPQYVPRP	-0.215
RRIRARPPRLPRPRPRPSVGPRP	0.324
RRIRGRPPRLPRPRPRPITRPRP	0.133
RRIRFRPPRLPRPRPRPEKGPRP	0.0184

Sequence	shrunken log2 fold change
RRIRWRPPRLPRPRPRPFTQPRP	-0.0585
RRIRIRPPRLPRPRPRPPKRPRP	0.0802
RRIRDRPPRLPRPRPRPYTEPRP	-0.0346
RRIRYRPPRLPRPRPRPGWCPRP	-0.128
RRIRQRPPRLPRPRPRPTVQPRP	0.226
RRIRHRPPRLPRPRPRPGTGPRP	-0.0184
RRIRNRPPRLPRPRPRPWCWPRP	-0.0119
RRIRPRPPRLPRPRPRPPNLPRP	0.0664
RRIRPRPPRLPRPRPRPHCFPRP	-0.497
RRIRNRPPRLPRPRPRPIIDPRP	-0.361
RRIRFRPPRLPRPRPRPQGWPRP	0.466
RRIRIRPPRLPRPRPRPTQGPRP	-0.104
RRIRFRPPRLPRPRPRPPFCPRP	0.0782
RRIRYRPPRLPRPRPRPRESPRP	0.0662
RRIRCRPPRLPRPRPRPSNLPRP	-0.425
RRIRERPPRLPRPRPRPCPLPRP	-0.265
RRIRFRPPRLPRPRPRPNEKPRP	0.0854
RRIRKRPPRLPRPRPRPVHGPRP	0.0412
RRIRDRPPRLPRPRPRPNNVPRP	-0.243
RRIRNRPPRLPRPRPRPECEPRP	-0.0156
RRIRERPPRLPRPRPRPTCRPRP	-0.146
RRIRSRPPRLPRPRPRPTHNPRP	-0.133
RRIRFRPPRLPRPRPRPIEQPRP	0.0187
RRIRPRPPRLPRPRPRPSYPPRP	-0.181
RRIRERPPRLPRPRPRPHINPRP	-0.713

— the supplement of paper PMC9112550, “Optimization of the antimicrobial peptide Bac7 by deep mutational scanning” (BMC Biology, 2022)
